Experimental data reported in US20040229298A1.
“And” between values parts separate entries of the source, which are not always exact repeats. Equal entries are not always repeated. Ends that are not written are not given here.

Key:
Test in all cases: G assay ELISA, 10 uM biotin peptide on anti-GST-captured GST-PDZ
[1] = biological target: GST-CASK PDZ domain 1 (human)
[2] = biological target: GST-NSP PDZ domain 1, clone #42.5 (human)
[3] = biological target: GST-KIAA0751 PDZ domain 1 (human)
[4] = biological target: GST-Syntrophin gamma 1 PDZ domain 1 (human)
[5] = biological target: GST-DLG1 PDZ domain 1 (human)
[6] = biological target: GST-ERBIN PDZ domain 1 (human)
[7] = biological target: GST-INADL PDZ domain 8 (human)
[8] = biological target: GST-KIAA0147 PDZ domain 2 (human)
[9] = biological target: GST-EBP50 PDZ domain 1, clone #167.2 (human)
[10] = biological target: GST-X-11 beta PDZ domain 2 (human)
[11] = biological target: GST-DLG1 PDZ domain 3 (human)
[12] = biological target: GST-INADL PDZ domain 4 (human)
[13] = biological target: GST-Shroom PDZ domain 1 (human)
[14] = biological target: GST-APXL1 PDZ domain 1 (human)
[15] = biological target: GST-Shank 1 PDZ domain 1 (human)
[16] = biological target: GST-SITAC-18 PDZ domain 1 (human)
[17] = biological target: GST-EBP50 PDZ domain 1, clone #311.1 (human)
[18] = biological target: GST-KIAA1719 PDZ domain 3 (human)
[19] = biological target: GST-HTRA 3 PDZ domain 1 (human)
[20] = biological target: GST-MAGI 1 PDZ domain 4 (human)
[21] = biological target: GST-Numb BP PDZ domain 1 (human)
[22] = biological target: GST-LIM-RIL PDZ domain 1 (human)
[23] = biological target: GST-CARD14 PDZ domain 1 (human)
[24] = biological target: GST-KIAA0147 PDZ domain 4 (human)
[25] = biological target: GST-KIAA0561 PDZ domain 1 (human)
[26] = biological target: GST-MUPP1 PDZ domain 13 (human)
[27] = biological target: GST-ZO-1 PDZ domain 1 (human)
[28] = biological target: GST-FLJ11215 PDZ domain 1 (human)

With WTGRCMSCCRSSRTRRETQL (not fully specified; cysteine pairing not given here) [HPV16 E6 C-terminal PDZ ligand peptide (20 mer, biotinylated), P03126 139-158] the Ave OD [1] was 0.36 A450 nm, the OD S/N (ratio to GST only well) [1] was 1.15 and the Ave OD [2] was 0.416 A450 nm. It also gave an OD S/N (ratio to GST only well) [2] of 1.95, an Ave OD [3] of 0.451 A450 nm and an OD S/N (ratio to GST only well) [3] of 2.1. The Ave OD [4] was 0.358 A450 nm, the OD S/N (ratio to GST only well) [4] was 2 and the Ave OD [5] was 0.391 A450 nm. The OD S/N (ratio to GST only well) [5] was 2.98, the Ave OD [6] was 0.36 A450 nm and 0.342 A450 nm and the OD S/N (ratio to GST only well) [6] was 1.82 and 1.3. For the same binder, the Ave OD [7] was 0.388 A450 nm, the OD S/N (ratio to GST only well) [7] was 1.58 and the Ave OD [8] was 0.374 A450 nm. For the same binder, the OD S/N (ratio to GST only well) [8] was 2.46, the Ave OD [9] was 0.381 A450 nm and 0.355 A450 nm and the OD S/N (ratio to GST only well) [9] was 1.94 and 2.28. For the same binder, the Ave OD [10] was 0.431 A450 nm and 0.426 A450 nm, the OD S/N (ratio to GST only well) [10] was 2.95 and 1.78 and the Ave OD [11] was 0.398 A450 nm. It also gave an OD S/N (ratio to GST only well) [11] of 2.45, an Ave OD [12] of 0.357 A450 nm and an OD S/N (ratio to GST only well) [12] of 2.15. It also gave an Ave OD [13] of 0.361 A450 nm, an OD S/N (ratio to GST only well) [13] of 3.25 and an Ave OD [14] of 0.461 A450 nm. The OD S/N (ratio to GST only well) [14] was 3.14, the Ave OD [15] was 0.385 A450 nm and the OD S/N (ratio to GST only well) [15] was 1.71. The Ave OD [16] was 0.398 A450 nm, the OD S/N (ratio to GST only well) [16] was 1.63 and the Ave OD [17] was 0.432 A450 nm. The OD S/N (ratio to GST only well) [17] was 2.05, the Ave OD [18] was 0.346 A450 nm and the OD S/N (ratio to GST only well) [18] was 1.65. It also gave an Ave OD [19] of 0.413 A450 nm, an OD S/N (ratio to GST only well) [19] of 1.34 and an Ave OD [20] of 0.395 A450 nm. For the same binder, the OD S/N (ratio to GST only well) [20] was 1.2, the Ave OD [21] was 0.352 A450 nm and the OD S/N (ratio to GST only well) [21] was 3.17. It also gave an Ave OD [22] of 0.449 A450 nm, an OD S/N (ratio to GST only well) [22] of 1.6 and an Ave OD [23] of 0.342 A450 nm. For the same binder, the OD S/N (ratio to GST only well) [23] was 1.52, the Ave OD [24] was 0.38 A450 nm and the OD S/N (ratio to GST only well) [24] was 2.34. For the same binder, the Ave OD [25] was 0.347 A450 nm, the OD S/N (ratio to GST only well) [25] was 2.44 and the Ave OD [26] was 0.435 A450 nm and 0.411 A450 nm. For the same binder, the OD S/N (ratio to GST only well) [26] was 1.56 and 1.75, the Ave OD [27] was 0.412 A450 nm and the OD S/N (ratio to GST only well) [27] was 1.83. The Ave OD [28] was 0.449 A450 nm and the OD S/N (ratio to GST only well) [28] was 2.77.
